Source: patent US20230250190A1 (published 2023)

Columns and labels:
Test in all cases: glycopeptide array
T4 (Tn-MUC1) = molecular target: T1, T4 (Tn-MUC1) (PAPGSTAPPAHGVT(α-GalNAc)SAPDTRPAPG-OH)
T1 peptide: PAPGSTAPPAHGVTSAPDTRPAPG

T9 (Tn-MUC1) = molecular target: T2, T9 (Tn-MUC1) (PAPGSTAPPAHGVT(α-GalNAc)S(α-GalNAc)APDTRPAPG-OH)
T2 peptide: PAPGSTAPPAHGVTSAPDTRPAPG

T8 (Tn-MUC1) = molecular target: T3, T8 (Tn-MUC1) (PAPGST(α-GalNAc)APPAHGVTSAPDT(α-GalNAc)RPAPG-OH)
T3 peptide: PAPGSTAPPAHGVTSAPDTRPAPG

T11 (Tn-MUC1) = molecular target: T4, T11 (Tn-MUC1) (PAPGSTAPPAHGVT(α-GalNAc)SAPDT(α-GalNAc)RPAPG-OH)
T4 peptide: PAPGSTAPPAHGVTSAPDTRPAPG

S9 (sTn-MUC1) = molecular target: T5, S9 (sTn-MUC1) (PAPGSTAPPAHGVT(Neu5Ac-α(2-6)-GalNAc)S(Neu5Ac-a(2-6)-GalNAc)APDTRPAPG-OH)
T5 peptide: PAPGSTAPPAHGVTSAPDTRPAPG

S4 (sTn-MUC1) = molecular target: T6, S4 (sTn-MUC1) (PAPGSTAPPAHGVT(Neu5Ac-α(2-6)-GalNAc)SAPDTRPAPG-OH)
T6 peptide: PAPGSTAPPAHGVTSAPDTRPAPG

S11 (sTn-MUC1) = molecular target: T7, S11 (sTn-MUC1) (PAPGSTAPPAHGVT(Neu5Ac-α(2-6)-GalNAc)SAPDT(Neu5Ac-a(2-6)-GalNAc)RPAPG-OH)
T7 peptide: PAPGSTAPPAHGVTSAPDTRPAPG

T3 (Tn-MUC1) = molecular target: T8, T3 (Tn-MUC1) (PAPGST(α-GalNAc)APPAHGVTSAPDTRPAPG-OH)
T8 peptide: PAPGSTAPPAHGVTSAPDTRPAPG

Binder	EC50 (T4 (Tn-MUC1)) [mg/L]	EC50 (T9 (Tn-MUC1)) [mg/L]	EC50 (T8 (Tn-MUC1)) [mg/L]	EC50 (T11 (Tn-MUC1)) [mg/L]	EC50 (S9 (sTn-MUC1)) [mg/L]	EC50 (S4 (sTn-MUC1)) [mg/L]	EC50 (S11 (sTn-MUC1)) [mg/L]	EC50 (T3 (Tn-MUC1)) [mg/L]
174 (antibody, V domains shown) VH: EVQLVESGAEVKKPGASVKVSCKASGYTFNRYYLHWVRQAPGQGLEWMGVINPYDGSTNYAQKFRGRITMTRDTSTNTVYMELSSLRSEDTAVYFCARDAMEGDSYFDKWGQGTLVTVSS	0.178	0.144	0.174	0.192				
102 (antibody, V domains shown) VH: QVQLVQSGAEVKKSGASVKVSCKASGYPFISYYIHWLRQAPGQGLTWMGVINPFDGSTDYAQKFQGRVTVTRDTSTSTVYMDLSSLRADDTAIYYCARDYMRGYVVFDYWGQGTLVTVSS	0.087	0.102	0.101	0.111				
74 (antibody, V domains shown) VH: QVQLVQSGAEVKKPGASVQVSCKASGYTFINYYLQWVRQAPGQGLEWMGTINPFDGSTHYEQNFQGRVTMTRDTSTNTVYMELNGLRSEDTAVYYCARDHMIGYILFDYWGQGTTVTVSS	0.111	0.096	0.118	0.137				
170 (antibody, V domains shown) VH: QVQLVQSGAEVKKPGASVQVSCKASGYTFINYYLQWVRQAPGQGLEWMGTINPFDGSTHYAQKFQGRVTMTRDTSTNTVYMELNSLRSEDTAVYYCARDRMIGYVLFDYWGQGTLVTVSS	0.116	0.127	0.123	0.141				
146 (antibody, V domains shown) VH: QVQLVQSGAEVKKPGASVKVSCKASGYAFTSYYIHWVRQAPGQGLEWMGVINPYGGSTNYAQKFQGRVTMTRDTSTRIVYMDLSSLRSEDTAVYYCARDAMEGDSYFDYWGQGTLVTVSS	0.081	0.086	0.104	0.116				
13 (antibody, V domains shown) VH: QVQLVQSGAEVKKPGASLKVSCKASGYTFTNYYIQWVRQAPGQGLEWMGVINPYDGSTNYAQKFQGRVTLTRDTSTTTVYMELSSLRSDDTAVYYCARDYMIGYVVFDYWGQGTLVTVSS	0.153	0.134	0.145	0.158	0.279	0.156		
SEQ ID NO 5 (bivalent monospecific MUC1 IgG) (antibody, V domains shown) VH: QVQLVQSGAEVKKPGASVKVSCKTSGYTFTRYYIQWVRQAPGQGLEWMGVINPYDGSTNYAQKFQGRVTVTRDTSTFTVYMELSSLRSEDTAVYYCARDYMRGYVIFDYWGQGTLVTVSS VL: not shown	0.116	0.113	0.123	0.127	0.137	0.12	0.296	
198 (antibody, V domains shown) VH: QVQLVQSGAEVKKPGASVKVSCKASGYTFINNYIQWVRQAPGQGLEWMGVINPYDGSIHYAQKFQGRVTLTRDTSTTTVYMELSSLRSEDTAVYYCARDYMIGYVVFEYWGQGTLVTVSS	0.111	0.121	0.121	0.137				
150 (antibody, V domains shown) VH: QVQLVQSGAEVKTPGASVKVSCKASGYTFTNYYIQWVRQAPGQALEWMGVINPYDGSTHYAQKFQGRVTLTRDTSTTTVYMDLSSLRSEDAAVYYCARDYMLGYVVFDYWGQGTLVTVSS	0.126	0.098	0.135	0.157				
194 (antibody, V domains shown) VH: QVQLVQSGAEVKKPGTSVKVSCTASGYTFTNYYIQWVRQAPGQGLEWLGVINPYDGSTDYAQKFQGRVTLTRDTSTTTVYMELSSLRSEDTAVYYCARDYMLGYVVFDFWGQGTLVTVSS	0.1	0.082	0.099	0.109				
106 (antibody, V domains shown) VH: QVQLVQSGAEMKKPGASVKISCKASGYTFTNYYIQWVRQAPGQGLEWMGVINPYDGSTNYAQRFQGRVTLTRDTSTTTVYMELSSLRSEDTAVYYCARDYMIGYVVFDFWGQGTLVTVSS	0.037	0.032	0.036	0.043				99.3
25 (antibody, V domains shown) VH: QVQLVESGAEVKKPGASVKVSCKASGYTFARYYVHWVRQAPGQGLEWMGLINPYGGATNYAQNFQGRVTMTRDTSTSTVYMELSSLRSEDTAVYYCARDAMGGDSYFDYWGQGTLVTVSS	0.1	0.119	0.113	0.129				38.6
86 (antibody, V domains shown) VH: QVQLVQSGAEVKKPGASVKVSCKASGYPFINYYIQWVRQAPGQGLEWMGVINPFDGSTNYAQKFQGRVTVTRDTSTSTVFMDLSSLRSEDTAVYYCARDNMIGYVLFDYWGQGTLVTVSS	0.057	0.05	0.061	0.068	0.105	0.074	13.1	
33 (antibody, V domains shown) VH: QVQLVQSGAEVKKPGASVRVSCKASGYPFINYYIQWVRQAPGQGLEWMGVINPFDGSTNYAQKFQDRVTVTRDTSTSTVFMDLSSLRSEDTAVYYCARDNMIGYVLLDYWGQGTLVTVSS	0.076	0.071	0.079	0.088				
SEQ ID NO 57 (bivalent monospecific MUC1 IgG) (antibody, V domains shown) VH: QVQLVESGTEVKKPGASVKVSCKASGYSFIHYYIHWVRQAPGRGLEWMGVINPFDGSTNYAQNFQGRVTVTRDTSTSTVFMDLSSLRSEDTAVYYCARDNMIGYVLFDHWGQGTLVTVSS VL: not shown	0.112	0.109	0.114	0.123	0.16	0.119	0.939	
206 (antibody, V domains shown) VH: QVQLVQSGAEVKKPGASVRVSCKASGYPFINYYIQWVRQAPGQGLEWMGVINPFDGSTNYAQKFQGRVTVTRDTSTSTVFMDLNSLRSEDTAVYYCARDSMIGYVLFDFWGQGTLVTVSS	0.068	0.066	0.084	0.088				
90 (antibody, V domains shown) VH: QVQLVQSGAEVKKPGASVKVSCKASGYTFINHYIHWVRQAPGQGLEWMGVINPFDGSTNYAQKFQGRVTVTRDTSTSTVFLDLSSLRSEDTAVYYCARDNMIGYVLFDYWGQGTLVTVSS	0.118	0.102	0.12	0.126	0.207	0.126	67.4	
SEQ ID NO 29 (bivalent monospecific MUC1 IgG) (antibody, V domains shown) VH: QVQLVQSGAEVKKPGASVKVSCKASGYSFIHYYIHWVRQAPGQGLEWMGVINPFDGSTNYAQKFQDRVTVTRDTSTSTVFMDLSSLRSEDTAVYYCARDNMIGYVLFDDWGQGTLVTVSS VL: not shown	0.104	0.118	0.121	0.126	0.22	0.118	6.96	
82 (antibody, V domains shown) VH: QVQLVQSGAEVKKPGASVKVSCKASGYTFTSYYIHWVRQAPGQGLEWMGVINPYDSSTNYAQKFQGRVTMTRDTSTSTVFMDLSSLRSEDTAVYYCARDNMIGYVLFDYWGQGTLVTVSS	0.145	0.167	0.196	0.227	0.83	0.173	58.6	
37 (antibody, V domains shown) VH: QVQLVQSGAEVKKPGASVTVSCKTSGYTFTSYYIHWLRQAPGQGLEWMGVINPFGGATNYAQKFQGRVTMTRDTSTITVYMELSSLRSEDTAVYYCARDAMGGDSHFDHWGRGTLVTVSS	0.157	0.13	0.144	0.158				
SEQ ID NO 178 (bivalent monospecific MUC1 IgG) (antibody, V domains shown) VH: QVQLVQSGAEVKKPGASVKVSCKASGYTFNRHYIQWVRQAPGQGLEWMGTINPYDGSTFYAQKFQDRVTMTRDTSTSTVYMDLNSLKSEDTAVYYCARDYMRGHVLFDYWGQGTLVTVSS VL: not shown	0.103	0.09	0.095	0.108	0.108	0.098	0.335	
162 (antibody, V domains shown) VH: QVQLVQSGAEVKKPGASVMLSCKASGYIFTSYYIQWVRQAPGQGLEWMGVVNPYDGSTNYAQKFQGRVTITRDTSTSTVFMELSSLRSEDTAVYYCARDNMLGHVIFDFWGQGTLVTVSS	0.037	0.037	0.043	0.063				
